{"source": "paper PMC7367873", "about": "“Dissecting the sequence determinants for dephosphorylation by the catalytic subunits of phosphatases PP1 and PP2A” (Nature Communications, 2020)", "molecular_target": "T1, PP2Ac (Homo sapiens, UniProt P67775)", "T1 construct": "purchased Cayman Chemical 10011237", "T1 sequence (P67775 1-308 limits assumed)": "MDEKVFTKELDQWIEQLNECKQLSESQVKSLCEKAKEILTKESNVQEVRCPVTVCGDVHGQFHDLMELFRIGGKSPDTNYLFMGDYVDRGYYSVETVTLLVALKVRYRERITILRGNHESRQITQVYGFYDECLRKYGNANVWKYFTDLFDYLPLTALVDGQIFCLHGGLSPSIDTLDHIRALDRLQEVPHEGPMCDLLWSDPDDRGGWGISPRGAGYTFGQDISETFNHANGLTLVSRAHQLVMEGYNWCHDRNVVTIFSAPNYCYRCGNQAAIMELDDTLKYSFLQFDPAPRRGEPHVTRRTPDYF", "experiment": "Phosphoproteome dephosphorylation assay of HeLa Kyoto lysate with recombinant PP2Ac (TMT phosphoproteomics)", "type": "biochemical", "conditions": "1 µM recombinant phosphatase, 1 h at 30 °C, 20 nM Calyculin A, three replicates", "procedure": "For phosphoproteomics, HeLa Kyoto cells were incubated with 20 nM Calyculin A (CST, #9902) for 10–15 min. This time point was determined empirically to yield maximal phosphatase inhibition without cells showing pleiotropic effects. Subsequently, cells were placed on ice and washed twice with cold PBS and scraped in lysis buffer (100 mM NaCl, 10 mM Tris, 0.1% IGEPAL, 1 mM EDTA, 1 mM EGTA, 20 nM Calyculin A, 1x cOmplete Mini protease inhibitor cocktail (Sigma), 1 mM DTT, 1 mM MnCl2, pH 7.5). After 10 pushes through an injection needle (21 G, BD), lysate was cleared from the insoluble fraction by centrifugation (10 min, 10^4 rcf, 4 °C). Protein concentration was then determined by a Bradford Assay and equal amounts of 1 mg total protein were incubated with recombinant PP1c/PP2Ac or buffer at a final phosphatase concentration of 1 µM in a total volume of 200 µL for 1 h at 30 °C. Lysates were then immediately placed on ice. PhosStop […] (Roche) was added and proteins were denatured by adding urea to a final concentration of 8 M taking into account the volume increase. Samples were then snap-frozen in liquid nitrogen for storage and subsequent MS analysis.\nTreated lysates were reduced (10 mM DTT, 30 °C, 30 min) and alkylated (50 mM chloroacetamide, room temperature, 30 min, in the dark), and then diluted to 1.3 M urea using 40 mM Tris-HCl (pH 7.6). […]", "data": [{"substance": "PP2Ac: His-tagged recombinant PPP2CA ΔL309, purchased from Cayman Chemical", "values": [{"measurement": "number of class I p-sites dephosphorylated by PP2A", "result": 1840, "unit": "p-sites"}]}]}
